Laboratory results: US20240425569A1 (VISTERRA, published 2024)
Residue numbers refer to the chain shown, from its start. Where two headings read alike, the source gives them in different places.

What was measured:
[1] = target: dengue virus DENV-3 strain Philippines/1956 (H87) (live virus; E protein) (dengue virus serotype DENV-3, strain …, UniProt P27915 281-773); assay: cell-based or functional assay
[2] = target: dengue virus DENV-1 strain Hawaii/1944 (live virus; E protein) (dengue virus serotype DENV-1, strain …); assay: cell-based or functional assay
[3] = target: dengue virus DENV-2 strain New Guinea/1944 (NGC) (live virus; E protein) (dengue virus serotype DENV-2, strain …, UniProt P14340 281-775); assay: cell-based or functional assay
[4] = target: dengue virus DENV-4 strain Mexico/1997 (BC287/97) (live virus; E protein) (dengue virus serotype DENV-4, strain …); assay: cell-based or functional assay
[5] = target: T1, EDIII-DV1 (E protein domain III of dengue virus serotype DV-1) (dengue virus serotype DV-1, UniProt P17763 573-680); assay: competition ELISA
T1 construct: also called DENV-1; EDIII of DV-1
T1 chain: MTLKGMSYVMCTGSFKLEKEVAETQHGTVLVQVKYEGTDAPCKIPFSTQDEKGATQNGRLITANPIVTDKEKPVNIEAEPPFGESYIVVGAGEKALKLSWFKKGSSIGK

[6] = target: T2, EDIII-DV3 (E protein domain III of dengue virus serotype DV-3) (dengue virus serotype DV-3, UniProt P27915 571-678); assay: competition ELISA
T2 construct: also called DENV-3; EDIII of DV-3

[7] = target: T2, EDIII-DV3 (E protein domain III of …)
[8] = target: T3, EDIII-DV4 (E protein domain III of dengue virus serotype DV-4) (dengue virus serotype DV-4, UniProt P09866 572-679)
T3 construct: also called DENV-4
T3 sequence (P09866 572-679, tags left off): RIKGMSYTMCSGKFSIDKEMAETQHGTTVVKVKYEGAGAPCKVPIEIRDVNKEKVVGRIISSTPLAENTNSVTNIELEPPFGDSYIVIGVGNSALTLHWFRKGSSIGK

[9] = target: T4, New Guinea/1944 (NGC)* (serotype II EDIII) (Dengue virus 2); assay: Kd table, method not stated; Ag DENV-2 NGC
T4 construct: isolated EDIII protein; also called EDIII of DENV-2 NGC

[10] = target: T5, Singapore/2009 (serotype III EDIII)
T5 construct: also called ED3-DV3/Sing09; DENV-3 Sing
T5 E protein domain III (EDIII): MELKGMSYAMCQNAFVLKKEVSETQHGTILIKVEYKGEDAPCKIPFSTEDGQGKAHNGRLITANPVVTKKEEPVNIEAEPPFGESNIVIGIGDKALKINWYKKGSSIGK

[11] = target: T6, ED3-DV4/H241/Phil56 (EDIII of DENV-4 strain H241) (dengue virus serotype DENV-4, strain …, UniProt Q58HT7 572-679); assay: Kd table, method not stated; Ag DENV-4 Phil
[12] = target: T7, Hawaii/1944* (serotype I EDIII) (Dengue virus 1); assay: ELISA; row Hawaii/1944*, serotype I, genotype I
T7 construct: isolated EDIII protein; also called EDIII of DENV-1 Hawaii/1944

[13] = target: T8, Thailand/1997 (serotype IV EDIII); assay: ELISA; row Thailand/1997, serotype IV, genotype III
T8 E protein domain III (EDIII): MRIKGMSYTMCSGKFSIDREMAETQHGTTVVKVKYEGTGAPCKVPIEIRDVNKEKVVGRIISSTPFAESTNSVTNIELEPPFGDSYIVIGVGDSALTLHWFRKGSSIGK

[14] = target: T9, Nicaragua/2010 (serotype III EDIII)
T9 construct: also called ED3-DV3/Nicaragua10; DENV-3 Nic
T9 E protein domain III (EDIII): T5 E protein domain III (EDIII) with Q12T, A14T, A40V, K94N

[15] = target: T10, Puerto Rico/1977 (serotype III EDIII); assay: SPR; row Puerto Rico/1977, serotype III, genotype IV
T10 construct: Genotype IV; also called ED3-DV3/PuertoRico77
T10 E protein domain III (EDIII): T5 E protein domain III (EDIII) with Q12S, N13G, A14T, V33I, G51A, I91T, K97R

[16] = target: T9, Nicaragua/2010 (serotype III EDIII)
[17] = target: T11, Vietnam/2007 (serotype II EDIII); assay: SPR; row Vietnam/2007, serotype II, genotype Asian II
T11 construct: Genotype Asian II; also called ED3-DV2/Viet07
T11 E protein domain III (EDIII): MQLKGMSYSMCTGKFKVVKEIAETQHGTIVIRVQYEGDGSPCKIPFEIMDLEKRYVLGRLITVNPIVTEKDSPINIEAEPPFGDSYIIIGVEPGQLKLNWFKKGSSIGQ

[18] = target: T6, ED3-DV4/H241/Phil56 (EDIII of DENV-4 …); assay: SPR; row Philippines/1956 (H241)*, serotype IV, genotype I
[19] = target: T6, ED3-DV4/H241/Phil56 (EDIII of DENV-4 …); assay: ELISA; row Philippines/1956 (H241)*, serotype IV, genotype I
[20] = target: T12, Venezuela/2007 (serotype II EDIII); assay: SPR; row Venezuela/2007, serotype II, genotype SE-Asian/American
T12 construct: also called ED3-DV2/Venezuela07
T12 E protein domain III (EDIII): T11 E protein domain III (EDIII) with V17I, V33I, M49T, Y55H, T68I, I74V

B1: antibody D88 (antibody, V domains shown)
VH: QVQLVQSGAEVKKPGASVKVSCKAGFNIKDVYMSWVRQAPEQGLEWMGRIDPENGDTKYDPKLQGRVTMTADTSTNTAYMELRSLRSDDTAVYYCARGWEGFAYWGQGTLVTVSS
VL: DIVMTQSPASLAVSLGERATISCRASENVDKYGNSFMHWYQQKPGQPPKLLIYRASELQWGVPDRFSGSGSGTDFTLTISSLQAEDVAVYYCQRSNEVPWTFGQGTKLEIK
notes: also called mAb D88
In the case of B1, the “EC50, FRNT” value [1] is reported as < 1 µg/mL, the “EC50, FRNT” value [2] is reported as < 1 µg/mL and the “EC50, FRNT” value [3] is reported as < 1 µg/mL. For the same binder, the “EC50, FRNT” value [4] was < 1 µg/mL, the Kd [5] was < 0.1 nM and the Kd [6] was 1.21 nM. For the same binder, the Kd [7] was 1.05 nM, the Kd [8] was 5.01 nM and the Kd [9] was < 0.1 nM. The Kd [10] was 0.33 nM, the Kd [11] was 148 nM and the Kd [12] was < 0.1 nM. For the same binder, the Kd [13] was 612 nM, the Kd [14] was 4.91 nM and the Kd [15] was 1.4 nM. It also gave a Kd [16] of 3.36 nM, a Kd [17] of 0.014 nM and a Kd [18] of 118 nM. It also gave a Kd [19] of 113 nM and a Kd [20] of 0.029 nM.
